In paper PMC10397319, “The phosphatidylinositol (4,5)-bisphosphate-Rab35 axis regulates migrasome formation” (Cell Research, 2023):
Ends that are not written are not given here.

Molecular target: T1, His-GFP-Rab35-Q67L (rat, UniProt Q5U316 1-201, Q67L)
T1 construct: Rab35, cloned from rat cDNA, constitutively active mutant Q67L; the methods describe only the WT purification; also called constitutively active Rab35-Q67L; active Rab35; source: cloned into pET21b, purified; not shown: GFP, N-terminal, kept
T1 sequence (Q5U316 whole entry Q67L): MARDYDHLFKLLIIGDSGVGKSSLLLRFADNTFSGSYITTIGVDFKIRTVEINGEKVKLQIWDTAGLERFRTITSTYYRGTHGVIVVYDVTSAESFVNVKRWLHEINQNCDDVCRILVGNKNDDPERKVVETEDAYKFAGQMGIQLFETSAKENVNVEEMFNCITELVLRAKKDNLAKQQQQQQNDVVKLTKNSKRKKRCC
Experiment: dual-color fluorescence cross-correlation spectroscopy (dcFCCS); both free in solution; 100 nM GFP-Rab35 mixed with 500 nM Cy5-ITGα5-cyto; 20 mM HEPES pH 7.5, 100 mM NaCl, 2 mM MgCl2, 0.1% BSA; 25 °C; 5 min recording, three repeats
Details: both partners purified

- binding result: binds
B1: Cy5-ITGα5-cyto-WT (peptide)
peptide: YKLGFFKRSLPYGTAMEKAQLKPPATSDA
modifications: also: Sulfo-Cy5 label, site not given here
notes: also called cytosolic domain of integrin α5; WT peptide; source: synthetic peptide (Synpeptide Co., Ltd.), labelled with Sulfo-Cy5 NHS ester
